# According to the supplement of paper PMC5998384:
# Key:
# HeLa Kyoto [1] = experiment: solubility in G1/S (NP-40 vs SDS abundance) (log2 ratio); higher = more soluble; details: cell cycle stage: G1/S
# HeLa Kyoto [2] = experiment: thermal stability score vs G1/S (z-score of summed log2 fold changes over temperatures); higher = more thermally stable than in G1/S
# HeLa Kyoto [3] = experiment: melting temperature (median over replicates), in situ; higher = more thermally stable
# HeLa Kyoto [4] = experiment: solubility change mitosis vs G1/S (difference of NP-40 vs SDS log2 ratios) (log2 ratio difference); higher = more soluble in mitosis
# [5] = cell cycle stage: early G1 (4.5 h after nocodazole release)
# 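Wherever melting temperature (median over replicates), in situ is given: HeLa Kyoto cells synchronized by double thymidine or nocodazole block, proteins quantified by TMT10plex mass spectrometry, three independent biological replicates.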
# 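Wherever solubility change mitosis vs G1/S (difference of NP-40 vs SDS log2 ratios) is given: synchronized HeLa Kyoto cells (double thymidine block for G1/S, nocodazole release for mitosis), protein amounts in NP-40 versus SDS lysates quantified by mass spectrometry, three biological replicates.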
# 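Wherever solubility in G1/S (NP-40 vs SDS abundance) is given: HeLa Kyoto cells arrested at G1/S by double thymidine block, proteins quantified by TMT10plex mass spectrometry in mild NP-40 versus SDS extracts, three biological replicates.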
# 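Wherever thermal stability score vs G1/S (z-score of summed log2 fold changes over temperatures) is given: synchronized HeLa Kyoto cells, proteins quantified by TMT10plex mass spectrometry, three biological replicates, mitosis taken 0.5 h after nocodazole release, G1/S directly after double thymidine block.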
# Sequence of FXR1 (chain, as listed by the source): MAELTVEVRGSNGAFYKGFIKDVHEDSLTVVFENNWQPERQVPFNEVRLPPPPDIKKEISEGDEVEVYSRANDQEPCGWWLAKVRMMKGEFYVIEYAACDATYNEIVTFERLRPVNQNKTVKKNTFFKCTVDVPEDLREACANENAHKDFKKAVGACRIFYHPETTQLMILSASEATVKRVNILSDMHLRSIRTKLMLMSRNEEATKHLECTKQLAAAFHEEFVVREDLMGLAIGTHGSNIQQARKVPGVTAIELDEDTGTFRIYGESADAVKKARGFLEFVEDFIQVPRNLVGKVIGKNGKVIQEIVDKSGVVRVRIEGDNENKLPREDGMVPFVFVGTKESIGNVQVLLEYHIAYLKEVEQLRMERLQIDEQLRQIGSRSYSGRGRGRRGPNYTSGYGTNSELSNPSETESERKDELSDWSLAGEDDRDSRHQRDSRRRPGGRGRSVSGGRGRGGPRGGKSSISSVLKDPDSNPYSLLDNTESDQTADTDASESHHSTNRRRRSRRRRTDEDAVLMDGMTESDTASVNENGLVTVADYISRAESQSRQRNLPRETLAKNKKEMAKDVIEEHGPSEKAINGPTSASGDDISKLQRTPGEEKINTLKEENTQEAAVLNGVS
Substance,solubility in G1/S (log2) (HeLa Kyoto [1]),thermal stability score (HeLa Kyoto [2]; [5]),thermal stability score (HeLa Kyoto [2]; cell cycle stage: mitosis),melting temperature (HeLa Kyoto [3]; cell cycle stage: G1/S),melting temperature (HeLa Kyoto [3]; cell cycle stage: mitosis),solubility change mitosis (log2) (HeLa Kyoto [4])
FXR1,-0.859,-2.47,2.23,50.3 °C,50.8 °C,0.215
MKDVPGFLQQSQNSGPGQPAVWHRLEELYTKKLWHQLTLQVLDFVQDPCFAQGDGLIKLYENFISEFEHRVNPLSLVEIILHVVRQMTDPNVALTFLEKTREKVKSSDEAVILCKTAIGALKLNIGDLQVTKETIEDVEEMLNNLPGVTSVHSRFYDLSSKYYQTIGNHASYYKDALRFLGCVDIKDLPVSEQQERAFTLGLAGLLGEGVFNFGELLMHPVLESLRNTDRQWLIDTLYAFNSGNVERFQTLKTAWGQQPDLAANEAQLLRKIQLLCLMEMTFTRPANHRQLTFEEIAKSAKITVNEVELLVMKALSVGLVKGSIDEVDKRVHMTWVQPRVLDLQQIKGMKDRLEFWCTDVKSMEMLVEHQAHDILT [PSMD13],0.0175,1.44,2.56,53.2 °C,51.3 °C,-0.181
MGST3,-0.272,-2.44,-4.93,56.3 °C,55.7 °C,0.0779
ZZEF1,-0.243,0.459,0.456,51.8 °C,51.5 °C,-0.0476
MGGKLSKKKKGYNVNDEKAKEKDKKAEGAATEEEGTPKESEPQAAAEPAEAKEGKEKPDQDAEGKAEEKEGEKDAAAAKEEAPKAEPEKTEGAAEAKAEPPKAPEQEQAAPGPAAGGEAPKAAEAAAAPAESAAPAAGEEPSKEEGEPKKTEAPAAPAAQETKSDGAPASDSKPGSSEAAPSSKETPAATEAPSSTPKAQGPAASAEEPKPVEAPAANSDQTVTVKE [BASP1],-1.08,-5.91,-9.69,48.2 °C,–,0.98
MSELTKELMELVWGTKSSPGLSDTIFCRWTQGFVFSESEGSALEQFEGGPCAVIAPVQAFLLKKLLFSSEKSSWRDCSEEEQKELLCHTLCDILESACCDHSGSYCLVSWLRGKTTEETASISGSPAESSCQVEHSSALAVEELGFERFHALIQKRSFRSLPELKDAVLDQYSMWGNKFGVLLFLYSVLLTKGIENIKNEIEDASEPLIDPVYGHGSQSLINLLLTGHAVSNVWDGDRECSGMKLLGIHEQAAVGFLTLMEALRYCKVGSYLKSPKFPIWIVGSETHLTVFFAKDMALVAPEAPSEQARRVFQTYDPEDNGFIPDSLLEDVMKALDLVSDPEYINLMKNKLDPEGLGIILLGPFLQEFFPDQGSSGPESFTVYHYNGLKQSNYNEKVMYVEGTAVVMGFEDPMLQTDDTPIKRCLQTKWPYIELLWTTDRSPSLN [FAM188A],0.00352,-0.555,-1.31,–,52.9 °C,-0.147
MAAPMEVAVCTDSAAPMWSCIVWELHSGANLLTYRGGQAGPRGLALLNGEYLLAAQLGKNYISAWELQRKDQLQQKIMCPGPVTCLTASPNGLYVLAGVAESIHLWEVSTGNLLVILSRHYQDVSCLQFTGDSSHFISGGKDCLVLVWSLCSVLQADPSRIPAPRHVWSHHALPITDLHCGFGGPLARVATSSLDQTVKLWEVSSGELLLSVLFDVSIMAVTMDLAEHHMFCGGSEGSIFQVDLFTWPGQRERSFHPEQDAGKVFKGHRNQVTCLSVSTDGSVLLSGSHDETVRLWDVQSKQCIRTVALKGPVTNAAILLAPVSMLSSDFRPSLPLPHFNKHLLGAEHGDEPRHGGLTLRLGLHQQGSEPSYLDRTEQLQAVLCSTMEKSVLGGQDQLRVRVTELEDEVRNLRKINRDLFDFSTRFITRPAK [WDR18],-1.23,-1.8,-5.26,56.6 °C,54.1 °C,0.571
MAEAHQAVAFQFTVTPDGIDLRLSHEALRQIYLSGLHSWKKKFIRFKNGIITGVYPASPSSWLIVVVGVMTTMYAKIDPSLGIIAKINRTLETANCMSSQTKNVVSGVLFGTGLWVALIVTMRYSLKVLLSYHGWMFTEHGKMSRATKIWMGMVKIFSGRKPMLYSFQTSLPRLPVPAVKDTVNRYLQSVRPLMKEEDFKRMTALAQDFAVGLGPRLQWYLKLKSWWATNYVSDWWEEYIYLRGRGPLMVNSNYYAMDLLYILPTHIQAARAGNAIHAILLYRRKLDREEIKPIRLLGSTIPLCSAQWERMFNTSRIPGEETDTIQHMRDSKHIVVYHRGRYFKVWLYHDGRLLKPREMEQQMQRILDNTSEPQPGEARLAALTAGDRVPWARCRQAYFGRGKNKQSLDAVEKAAFFVTLDETEEGYRSEDPDTSMDSYAKSLLHGRCYDRWFDKSFTFVVFKNGKMGLNAEHSWADAPIVAHLWEYVMSIDSLQLGYAEDGHCKGDINPNIPYPTRLQWDIPGECQEVIETSLNTANLLANDVDFHSFPFVAFGKGIIKKCRTSPDAFVQLALQLAHYKDMGKFCLTYEASMTRLFREGRTETVRSCTTESCDFVRAMVDPAQTVEQRLKLFKLASEKHQHMYRLAMTGSGIDRHLFCLYVVSKYLAVESPFLKEVLSEPWRLSTSQTPQQQVELFDLENNPEYVSSGGGFGPVADDGYGVSYILVGENLINFHISSKFSCPETDSHRFGRHLKEAMTDIITLFGLSSNSKK [CPT1A],-0.177,5.3,4.57,50 °C,50.1 °C,-0.0899
